Here are results for 9 molecules from patent publication US20240270821A1, “GIP/GLP1/GCG TRI-RECEPTOR AGONISTS AND USES THEREOF” (priority 2023, published 2024).

Where a chain is given by its changes, count along the chain named.

What all share (assay): cell-based or functional assay
For one assay, the target named is hGLP-1R (Homo sapiens, UniProt P43220).
The target of assay [1] is T1, human GIP receptor (human) (UniProt P48546).
T1 sequence (looked up): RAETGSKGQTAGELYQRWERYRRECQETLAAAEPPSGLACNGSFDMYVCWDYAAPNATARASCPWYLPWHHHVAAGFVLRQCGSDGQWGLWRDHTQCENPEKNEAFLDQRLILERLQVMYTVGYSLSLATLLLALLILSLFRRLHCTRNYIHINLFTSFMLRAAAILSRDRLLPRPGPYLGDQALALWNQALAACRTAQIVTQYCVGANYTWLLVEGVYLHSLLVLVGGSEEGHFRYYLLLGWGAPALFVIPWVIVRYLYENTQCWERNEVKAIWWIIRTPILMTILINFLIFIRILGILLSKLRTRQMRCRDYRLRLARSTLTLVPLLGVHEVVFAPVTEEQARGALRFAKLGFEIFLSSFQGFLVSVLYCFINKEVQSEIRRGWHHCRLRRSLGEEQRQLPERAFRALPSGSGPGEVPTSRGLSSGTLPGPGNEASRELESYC

In assay [2] the target is human GLP1-R (SNAP-GLP-1R expressed in HEK293 cells) (human) (UniProt P43220).
human GLP1-R (SNAP-GLP-1R expressed in HEK293 cells) (human), sequence (P43220 24-463): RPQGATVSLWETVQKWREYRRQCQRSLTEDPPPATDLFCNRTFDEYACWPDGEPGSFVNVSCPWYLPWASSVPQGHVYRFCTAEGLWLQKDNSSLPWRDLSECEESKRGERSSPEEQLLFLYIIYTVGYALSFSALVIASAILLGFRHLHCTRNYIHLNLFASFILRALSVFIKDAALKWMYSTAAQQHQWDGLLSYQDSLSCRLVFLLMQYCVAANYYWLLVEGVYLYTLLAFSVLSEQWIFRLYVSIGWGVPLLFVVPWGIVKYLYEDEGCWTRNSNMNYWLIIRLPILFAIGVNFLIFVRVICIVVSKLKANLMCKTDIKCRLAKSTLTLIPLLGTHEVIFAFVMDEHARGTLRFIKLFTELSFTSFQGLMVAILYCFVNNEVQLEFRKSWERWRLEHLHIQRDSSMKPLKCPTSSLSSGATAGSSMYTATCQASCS
Assay [3] concerns the target human glucagon receptor (human) (UniProt P47871).

hGLP-1R, sequence (P43220 24-463): as above
human glucagon receptor (human), sequence (P47871 26-477): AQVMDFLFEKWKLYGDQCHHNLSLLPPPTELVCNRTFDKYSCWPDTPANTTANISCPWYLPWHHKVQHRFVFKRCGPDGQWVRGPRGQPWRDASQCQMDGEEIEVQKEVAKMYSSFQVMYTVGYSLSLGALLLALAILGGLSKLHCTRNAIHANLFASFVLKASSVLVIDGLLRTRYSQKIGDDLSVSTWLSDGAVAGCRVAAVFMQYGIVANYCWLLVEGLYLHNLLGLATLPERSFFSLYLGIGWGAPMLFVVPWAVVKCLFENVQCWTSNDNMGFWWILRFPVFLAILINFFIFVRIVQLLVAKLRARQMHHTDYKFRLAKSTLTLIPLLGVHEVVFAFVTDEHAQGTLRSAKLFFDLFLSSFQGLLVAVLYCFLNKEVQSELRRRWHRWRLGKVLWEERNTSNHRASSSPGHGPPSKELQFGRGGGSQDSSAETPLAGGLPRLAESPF

B1: Example 7 (peptide)
chain: YXQGTFTSDFSKXLDKKAQXAFIEYLLAGGPSSGEPPPSSG
modifications: Aib, αMeL, acylated K, C-terminal amide; synthetic construct; SITE 2: note = 2-Aminoisobutyric Acid; SITE 13: note = alpha-methyl-leucine; SITE 17: note = Lysine is chemically modified through conjugation of the epsilon-amino group of the Lysine side chain with (2-[2-(2-Amino-ethoxy)-ethoxy]-acetyl)-(gamma-Glu)-CO-(CH2) 18-CO2H; SITE 20: n
B1: in the assay with hGLP-1R, the Relative cAMP EC50 was found to be 2.11 nM and the cAMP Rel EC50 (in the presence of 1% HSA) stood at 494 nM. Besides, in assay [1], the Relative cAMP EC50 worked out at 0.203 nM and the cAMP Rel EC50 (in the presence of 1% HSA) worked out at 50.6 nM. Also, in assay [2], the GLP1R Internalization EC50 turned out to be 52.6 nM and the Internalization % TOP was 76.3%. For the same molecule, in assay [3], the Relative cAMP EC50 stood at 5.05 nM and the cAMP Rel EC50 (in the presence of 1% HSA) worked out at 1210 nM.

B2: Example 78 (peptide)
chain: YXQGTFTSDFSXXLDKKAQXAFIEWLLEGGPSSGAPPPSGS
modifications: synthetic construct; SITE 2: note = 2-Aminoisobutyric Acid; SITE 12: note = L-ornithine; SITE 13: note = alpha-methyl-leucine; SITE 17: note = Lysine is chemically modified through conjugation of the epsilon-amino group of the Lysine side chain with (2-[2-(2-Amino-ethoxy)-ethoxy]-acetyl)-(gamma-Glu)
With B2, in the assay with hGLP-1R, the Relative cAMP EC50 was 1.93 nM and the cAMP Rel EC50, nM (in the presence of 1% HSA) is 560 nM. In assay [1], the Relative cAMP EC50 is 0.228 nM and the cAMP Rel EC50, nM (in the presence of 1% HSA) came out at 78.4 nM. In assay [2], this molecule returned a GLP1R Internalization EC50 of 78.2 nM and an Internalization % TOP of 55%. For the same molecule, in assay [3], the Relative cAMP EC50 stood at 7.06 nM and the cAMP Rel EC50, nM (in the presence of 1% HSA) turned out to be 2640 nM.

B3: Example 12 (peptide)
chain: B1 chain with E35A, S40G
modifications: Aib, αMeL; acylated Lys; C-terminal amide; synthetic construct; SITE 2: note = 2-Aminoisobutyric Acid; SITE 13: note = alpha-methyl-leucine; SITE 17: note = Lysine is chemically modified through conjugation of the epsilon-amino group of the Lysine side chain with (2-[2-(2-Amino-ethoxy)-ethoxy]-acetyl)-(gamma-Glu)-CO-(CH2) 18-CO2H; SITE 20: n
In the case of B3, in the assay with hGLP-1R, the Relative cAMP EC50 turned out to be 1.46 nM and the cAMP Rel EC50 (in the presence of 1% HSA) came out at 216 nM. In assay [1], the Relative cAMP EC50 came out at 0.17 nM and the cAMP Rel EC50 (in the presence of 1% HSA) stood at 30.2 nM. In assay [2], this molecule gave a GLP1R Internalization EC50 of 48.5 nM and an Internalization % TOP of 75.3%. In assay [3], the Relative cAMP EC50 was 12.2 nM and the cAMP Rel EC50 (in the presence of 1% HSA) was 1490 nM.

B4: Example 99 (peptide)
chain: B2 chain with W25Y, E28A, S39E, S41E
modifications: synthetic construct; SITE 2: note = 2-Aminoisobutyric Acid; SITE 12: note = L-ornithine; SITE 13: note = alpha-methyl-leucine; SITE 17: note = Lysine is chemically modified through conjugation of the epsilon-amino group of the Lysine side chain with (2-[2-(2-Amino-ethoxy)-ethoxy]-acetyl)-(gamma-Glu)
Consider B4, for which, in the assay with hGLP-1R, the Relative cAMP EC50 was found to be 3.54 nM and the cAMP Rel EC50, nM (in the presence of 1% HSA) amounted to 588 nM. For the same molecule, in assay [1], the Relative cAMP EC50 stood at 0.174 nM and the cAMP Rel EC50, nM (in the presence of 1% HSA) stood at 29.5 nM. Further, in assay [2], the GLP1R Internalization EC50 was 56.9 nM and the Internalization % TOP came out at 46.1%. In addition, in assay [3], the Relative cAMP EC50 turned out to be 6.09 nM and the cAMP Rel EC50, nM (in the presence of 1% HSA) was found to be 1130 nM.

B5: Example 97 (peptide)
chain: B1 chain with K12X, S40G, G41E
modifications: synthetic construct; SITE 2: note = 2-Aminoisobutyric Acid; SITE 12: note = L-ornithine; SITE 13: note = alpha-methyl-leucine; SITE 17: note = Lysine is chemically modified through conjugation of the epsilon-amino group of the Lysine side chain with (2-[2-(2-Amino-ethoxy)-ethoxy]-acetyl)-(gamma-Glu)
Turning to B5, in the assay with hGLP-1R, the Relative cAMP EC50 came to 3.23 nM and the cAMP Rel EC50, nM (in the presence of 1% HSA) is 605 nM. Besides, in assay [1], the Relative cAMP EC50 was found to be 0.176 nM and the cAMP Rel EC50, nM (in the presence of 1% HSA) is 23.9 nM. For the same molecule, in assay [2], the GLP1R Internalization EC50 was 51.9 nM and the Internalization % TOP stood at 50.7%. Also, in assay [3], the Relative cAMP EC50 worked out at 6.73 nM and the cAMP Rel EC50, nM (in the presence of 1% HSA) was determined as 1270 nM.

B6: Example 94 (peptide)
chain: B1 chain with K12X, S40G, G41S
modifications: synthetic construct; SITE 2: note = 2-Aminoisobutyric Acid; SITE 12: note = L-ornithine; SITE 13: note = alpha-methyl-leucine; SITE 17: note = Lysine is chemically modified through conjugation of the epsilon-amino group of the Lysine side chain with (2-[2-(2-Amino-ethoxy)-ethoxy]-acetyl)-(gamma-Glu)
On to B6, for which, in the assay with hGLP-1R, the Relative cAMP EC50 was found to be 2.63 nM and the cAMP Rel EC50, nM (in the presence of 1% HSA) turned out to be 480 nM. Moreover, in assay [1], the Relative cAMP EC50 stood at 0.154 nM and the cAMP Rel EC50, nM (in the presence of 1% HSA) worked out at 21.4 nM. In assay [2], this molecule returned a GLP1R Internalization EC50 of 37.1 nM and an Internalization % TOP of 47.2%. For the same molecule, in assay [3], the Relative cAMP EC50 is 8.16 nM and the cAMP Rel EC50, nM (in the presence of 1% HSA) was 1220 nM.

B7: Example 17 (peptide)
chain: B1 chain with A28E, E35A, S39G, S40E
modifications: Aib, αMeL, acylated Lys, C-terminal amide; synthetic construct; SITE 2: note = 2-Aminoisobutyric Acid; SITE 13: note = alpha-methyl-leucine; SITE 17: note = Lysine is chemically modified through conjugation of the epsilon-amino group of the Lysine side chain with (2-[2-(2-Amino-ethoxy)-ethoxy]-acetyl)2-(gamma-Glu)-CO-(CH2 )18-CO2H; SITE 20:
B7: in the assay with hGLP-1R, the Relative cAMP EC50 was 2.96 nM and the cAMP Rel EC50 (in the presence of 1% HSA) is 543 nM. For the same molecule, in assay [1], the Relative cAMP EC50 was found to be 0.317 nM and the cAMP Rel EC50 (in the presence of 1% HSA) came to 91.7 nM. Besides, in assay [2], the GLP1R Internalization EC50 worked out at 66.2 nM and the Internalization % TOP was found to be 72.2%. For the same molecule, in assay [3], the Relative cAMP EC50 came out at 8.33 nM and the cAMP Rel EC50 (in the presence of 1% HSA) stood at 2040 nM.

B8: Example 93 (peptide)
chain: B2 chain with W25Y, E28A, S39E
modifications: synthetic construct; SITE 2: note = 2-Aminoisobutyric Acid; SITE 12: note = L-ornithine; SITE 13: note = alpha-methyl-leucine; SITE 17: note = Lysine is chemically modified through conjugation of the epsilon-amino group of the Lysine side chain with (2-[2-(2-Amino-ethoxy)-ethoxy]-acetyl)-(gamma-Glu)
In the case of B8, in the assay with hGLP-1R, the Relative cAMP EC50 came out at 2.63 nM and the cAMP Rel EC50, nM (in the presence of 1% HSA) was 397 nM. In assay [1], the Relative cAMP EC50 amounted to 0.162 nM and the cAMP Rel EC50, nM (in the presence of 1% HSA) turned out to be 27.9 nM. In assay [2], this molecule gave a GLP1R Internalization EC50 of 30.4 nM and an Internalization % TOP of 50.8%. For the same molecule, in assay [3], the Relative cAMP EC50 is 7.16 nM and the cAMP Rel EC50, nM (in the presence of 1% HSA) came out at 1390 nM.

B9: Example 98 (peptide)
chain: B1 chain with K12X, S39E, S40G, G41E
modifications: synthetic construct; SITE 2: note = 2-Aminoisobutyric Acid; SITE 12: note = L-ornithine; SITE 13: note = alpha-methyl-leucine; SITE 17: note = Lysine is chemically modified through conjugation of the epsilon-amino group of the Lysine side chain with (2-[2-(2-Amino-ethoxy)-ethoxy]-acetyl)-(gamma-Glu)
As for B9, the Relative cAMP EC50 with hGLP-1R turned out to be 4.35 nM; in assay [1], 0.179 nM; in assay [3], 6.91 nM. Also, the cAMP Rel EC50, nM (in the presence of 1% HSA) with hGLP-1R is 660 nM; in assay [1], 33.8 nM; in assay [3], 867 nM. Moreover, the GLP1R Internalization EC50 in assay [2] turned out to be 56 nM. In addition, the Internalization % TOP in assay [2] came out at 49.3%.
